Test results: publication PMC12264551 (Molecular Pharmacology, 2025)

Tests used:
calcitonin receptor [1] = molecular target: T1, calcitonin receptor (Homo sapiens, UniProt P30988); assay: Live cell cAMP accumulation (GloSensor), MCF-7 cells with endogenous calcitonin receptor; format: cell-based; set-up: COS-7 (African monkey kidney) in A3; conditions: calcitonin + vehicle, Fig. 1D, fraction of greatest slope, ± SEM, n = 3
T1 sequence (P30988 25-474): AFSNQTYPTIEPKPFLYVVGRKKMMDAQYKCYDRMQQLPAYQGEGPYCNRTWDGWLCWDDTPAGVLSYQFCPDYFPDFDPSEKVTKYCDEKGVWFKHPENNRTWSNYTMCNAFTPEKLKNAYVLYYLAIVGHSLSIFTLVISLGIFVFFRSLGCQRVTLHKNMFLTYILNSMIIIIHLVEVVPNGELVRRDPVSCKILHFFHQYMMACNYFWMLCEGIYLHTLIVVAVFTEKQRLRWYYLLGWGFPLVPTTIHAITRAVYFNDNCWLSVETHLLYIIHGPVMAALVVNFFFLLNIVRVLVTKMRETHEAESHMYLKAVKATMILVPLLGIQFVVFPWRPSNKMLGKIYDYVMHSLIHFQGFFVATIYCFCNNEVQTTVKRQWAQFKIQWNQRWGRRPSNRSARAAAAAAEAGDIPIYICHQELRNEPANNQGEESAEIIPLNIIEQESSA

calcitonin receptor [2] = molecular target: T1, calcitonin receptor; assay: Live cell cAMP accumulation (GloSensor), COS-7 cells transfected with calcitonin receptor; format: cell-based; set-up: host or cells: COS-7 (African monkey kidney) in A3; conditions: calcitonin + vehicle, Fig. 1F, fraction of greatest slope, ± SEM, n = 3
calcitonin receptor [3] = molecular target: T1, calcitonin receptor; assay: Live cell cAMP accumulation (GloSensor), UMR-106 cells transfected with calcitonin receptor; format: cell-based; set-up: host or cells: UMR-106 (rat osteoblast-like) in A1; COS-7 (African monkey kidney) in A3; conditions: calcitonin + vehicle, Fig. 1B, fraction of greatest slope, best-fit ± SEM, n = 3
class B GPCRs = assay: Signaling of class B GPCRs tested (summary over receptors); format: cell-based; conditions: CMP in place of ATP
Method: Cells were treated with IBMX (200–500 μM) and were further incubated for 20 minutes at room temperature. […] The emitted luminescence was measured at room temperature with a 1-second integration time at 1.5-minute intervals for a total of 45 minutes.
Data shown are means ± SEM.
To assess the time-to-maximum-slope (ie, “lag time”) for each time-course curve, we determined the time elapsed from the addition of agonist (time 0) to the first data point of the maximum slope. This procedure is illustrated in Supplemental Fig. 1.

[4] = molecular target: T2, VPAC1R, endogenous in SaOS-2 cells (human (endogenous in SaOS-2)) (UniProt P32241)
T2 sequence: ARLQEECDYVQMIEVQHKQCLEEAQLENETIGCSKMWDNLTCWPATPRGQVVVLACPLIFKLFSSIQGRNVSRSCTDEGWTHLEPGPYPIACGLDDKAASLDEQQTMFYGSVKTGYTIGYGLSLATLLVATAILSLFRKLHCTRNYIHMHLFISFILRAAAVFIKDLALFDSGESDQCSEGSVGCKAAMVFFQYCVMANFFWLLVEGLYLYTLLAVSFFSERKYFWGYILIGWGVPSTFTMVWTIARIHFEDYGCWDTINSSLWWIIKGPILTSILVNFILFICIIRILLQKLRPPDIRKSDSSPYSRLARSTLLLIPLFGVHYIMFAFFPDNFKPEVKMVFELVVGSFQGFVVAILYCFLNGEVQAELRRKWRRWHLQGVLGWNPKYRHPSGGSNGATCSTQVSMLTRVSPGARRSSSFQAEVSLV

[5] = molecular target: T3, vasoactive intestinal polypeptide receptor 1 (UniProt P32241)
T3 sequence: T2 sequence

[6] = molecular target: T4, vasoactive intestinal polypeptide receptor 2 (UniProt P41587)
T4 sequence: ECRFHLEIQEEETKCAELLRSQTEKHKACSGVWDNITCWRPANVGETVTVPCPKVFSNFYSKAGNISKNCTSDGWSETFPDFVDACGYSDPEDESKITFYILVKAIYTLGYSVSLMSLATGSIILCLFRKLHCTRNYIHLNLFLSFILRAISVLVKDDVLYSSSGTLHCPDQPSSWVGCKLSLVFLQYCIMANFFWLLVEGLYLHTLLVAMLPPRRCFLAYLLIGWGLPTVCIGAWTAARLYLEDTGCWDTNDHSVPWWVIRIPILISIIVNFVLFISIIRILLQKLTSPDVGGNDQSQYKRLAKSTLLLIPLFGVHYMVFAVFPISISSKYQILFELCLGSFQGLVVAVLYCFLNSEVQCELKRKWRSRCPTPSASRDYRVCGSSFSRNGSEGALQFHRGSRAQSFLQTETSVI

CC(C)C[C@H](NC(=O)[C@H](CCCCN)NC(=O)CNC(=O)[C@H](CC(C)C)NC(=O)[C@@H](NC(=O)[C@@H]1CSSC[C@H](N)C(=O)N[C@@H](CO)C(=O)N[C@@H](CC(N)=O)C(=O)N[C@@H](CC(C)C)C(=O)N[C@@H](CO)C(=O)N[C@@H]([C@@H](C)O)C(=O)N1)C(C)C)C(=O)N[C@@H](CO)C(=O)N[C@@H](CCC(N)=O)C(=O)N[C@@H](CCC(=O)O)C(=O)N[C@@H](CC(C)C)C(=O)N[C@@H](Cc1c[nH]cn1)C(=O)N[C@@H](CCCCN)C(=O)N[C@@H](CC(C)C)C(=O)N[C@@H](CCC(N)=O)C(=O)N[C@H](C(=O)N[C@@H](Cc1ccc(O)cc1)C(=O)N1CCC[C@H]1C(=O)N[C@@H](CCCNC(=N)N)C(=O)N[C@H](C(=O)N[C@@H](CC(N)=O)C(=O)N[C@H](C(=O)NCC(=O)N[C@@H](CO)C(=O)NCC(=O)N[C@H](C(=O)N1CCC[C@H]1C(N)=O)[C@@H](C)O)[C@@H](C)O)[C@@H](C)O)[C@@H](C)O [calcitonin, Salmon calcitonin]
Normalized Maximum (calcitonin receptor [1]): 0.68 ± 0.05 | Normalized Maximum (calcitonin receptor [2]): 0.69 ± 0.04 | Normalized Maximum (calcitonin receptor [3]): 0.69 ± 0.04

Nc1ccn([C@@H]2O[C@H](COP(=O)(O)O)[C@@H](O)[C@H]2O)c(=O)n1 [CMP, cytidine 5'-monophosphate]
enhancing effect of ATP (class B GPCRs): mimicked

B1: vasoactive intestinal peptide (peptide)
peptide: HSDAVFTDNYTRLRKQMAVKKYLNSILN
−LogEC50 of VIP, maximum rate of cAMP accumulation (GloSensor), SaOS-2 cells (endogenous VPAC1R), vehicle (Fig. 6K) (−LogEC50 (EC50 in M)) [4]: 8.35 | −LogEC50 of VIP, maximum rate of cAMP accumulation (GloSensor), SaOS-2 cells (endogenous VPAC1R), with ATP 1.5 mM (Fig. 6K) (−LogEC50 (EC50 in M)) [4]: 9.24 | −LogEC50 of VIP, maximum rate of cAMP accumulation (GloSensor), COS-7 cells transfected with VPAC1R, vehicle (Fig. 6E) (−LogEC50 (EC50 in M)) [5]: 9.56 | −LogEC50 of VIP, maximum rate of cAMP accumulation (GloSensor), COS-7 cells transfected with VPAC1R, with ATP 1.5 mM (Fig. 6E) (−LogEC50 (EC50 in M)) [5]: 10.3 | −LogEC50 of VIP, maximum rate of cAMP accumulation (GloSensor), COS-7 cells transfected with VPAC2R, vehicle (Fig. 6H) (−LogEC50 (EC50 in M)) [6]: 8.9 | −LogEC50 of VIP, maximum rate of cAMP accumulation (GloSensor), COS-7 cells transfected with VPAC2R, with ATP 1.5 mM (Fig. 6H) (−LogEC50 (EC50 in M)) [6]: 9.42
